In the Human Domainome abundance scans (Beltran et al. 2025):
± gives the uncertainty stated by the source.

B1: Formin-binding protein 4, residues 593 to 636; numbered along this chain, Q8N3X1 (parent)
chain: EINATPKGWSCHWDRDHRRYFYVNEQSGESQWEFPDGEEEEEES

Variants of: B1
Test: abundance fitness (aPCA) (normalised: wild type 0, dead -1); higher = more abundant; growth selection in yeast, the domain comes from the species named
Settings: Homo sapiens

Variant | abundance fitness
R15L | -0.167 ± 0.082
R15C | -0.204 ± 0.088
R15H | 0.116 ± 0.096
R15E | 0.123 ± 0.07
D14H | -0.289 ± 0.13
D14W | -1.4 ± 0.11
D14M | -0.682 ± 0.098
D14K | -0.928 ± 0.14
D14Y | -1.24 ± 0.15
Q31L | -0.383 ± 0.07
Q31H | -0.47 ± 0.087
Q31W | -0.613 ± 0.062
Q31M | -0.451 ± 0.12
Q31K | -0.32 ± 0.11
Q31S | -0.293 ± 0.087
Q31V | -0.153 ± 0.061
E25T | -0.119 ± 0.13
E25S | -0.365 ± 0.14
E25D | 0.144 ± 0.13
E25H | -0.251 ± 0.12
E25K | 0.477 ± 0.27

Variant | abundance fitness
E25R | -0.175 ± 0.067
E25W | -0.648 ± 0.095
E25M | -0.253 ± 0.12
G8S | -0.623 ± 0.13
G8L | -0.795 ± 0.13
G8T | -0.843 ± 0.27
G8I | -0.496 ± 0.14
N3R | -0.169 ± 0.085
N3L | -0.239 ± 0.11
N3T | -0.355 ± 0.48
D16S | -0.24 ± 0.09
D16T | -0.064 ± 0.14
D16A | -0.234 ± 0.063
D16F | -0.362 ± 0.17
G28S | -0.553 ± 0.075
G28T | -0.728 ± 0.079
G28M | -0.611 ± 0.13
G28Q | -0.337 ± 0.11
G28F | -1.22 ± 0.23
G28D | -0.682 ± 0.11
I2V | -0.204 ± 0.095

Variant | abundance fitness
I2S | 0.142 ± 0.1
I2W | -0.283 ± 0.1
E42Y | -0.152 ± 0.14
E42L | -0.073 ± 0.069
E42H | -0.009 ± 0.1
E42M | 0.038 ± 0.11
E42S | 0.032 ± 0.073
E42F | -0.368 ± 0.16
W13M | -0.542 ± 0.096
W13E | -0.456 ± 0.084
W13L | -0.46 ± 0.083
W13A | -0.571 ± 0.068
W13K | -0.545 ± 0.16
W9C | -0.56 ± 0.094
W9P | -0.512 ± 0.09
W9A | -0.568 ± 0.099
N24G | -0.611 ± 0.059
N24E | -0.335 ± 0.082
N24I | -1.14 ± 0.15
N24D | -0.362 ± 0.085
N24A | -0.62 ± 0.068

Variant | abundance fitness
N24Q | -0.41 ± 0.084
A4G | 0.033 ± 0.073
A4E | 0.081 ± 0.19
A4P | 0.086 ± 0.29
A4Q | -0.122 ± 0.2
A4S | -0.306 ± 0.18
A4L | 0.019 ± 0.1
A4M | 0.036 ± 0.12
F21T | -0.111 ± 0.16
F21L | -0.051 ± 0.083
F21E | -0.145 ± 0.089
F21W | -0.275 ± 0.086
F21K | -0.067 ± 0.11
P35W | -0.782 ± 0.094
P35N | -0.74 ± 0.11
P35M | -0.734 ± 0.13
P35L | -0.801 ± 0.076
P35V | -0.583 ± 0.071
P35S | -0.651 ± 0.095
P35K | -0.482 ± 0.098
P35F | -0.854 ± 0.23
